One series deals with T1, phiC31 integrase C374A (Streptomyces phage phiC31, UniProt Q38194 1-613, C374A).
T1 sequence: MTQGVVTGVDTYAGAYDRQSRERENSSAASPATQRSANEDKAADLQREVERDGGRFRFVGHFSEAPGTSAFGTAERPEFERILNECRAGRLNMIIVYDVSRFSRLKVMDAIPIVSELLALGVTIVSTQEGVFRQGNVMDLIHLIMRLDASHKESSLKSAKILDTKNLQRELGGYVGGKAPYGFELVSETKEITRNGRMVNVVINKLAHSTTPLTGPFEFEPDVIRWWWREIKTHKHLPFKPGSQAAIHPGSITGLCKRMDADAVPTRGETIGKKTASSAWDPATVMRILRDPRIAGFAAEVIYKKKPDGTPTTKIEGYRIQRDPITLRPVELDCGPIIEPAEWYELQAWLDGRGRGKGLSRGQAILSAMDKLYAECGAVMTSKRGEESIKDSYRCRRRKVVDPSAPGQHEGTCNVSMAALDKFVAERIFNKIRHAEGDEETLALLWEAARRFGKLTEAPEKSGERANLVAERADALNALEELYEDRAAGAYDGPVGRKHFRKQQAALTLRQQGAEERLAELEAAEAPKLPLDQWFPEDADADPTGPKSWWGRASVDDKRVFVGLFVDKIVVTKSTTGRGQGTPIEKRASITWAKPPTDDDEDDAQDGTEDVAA
The experiment in a line: EMSA; 50 ng/ul Poly (competitor (so in the source)), 0.05% NP-40, 50 mM KCl, 5 mM MgCl2, 10 mM EDTA, 20 ul, 0.4 ng (16 fmol) probe; 30 min at room temperature (Methods) or 30 C; pH not stated; synapsis 2 h at 30 C. The note with it: protein: recombinant; tags: C-terminal His; chain copies: 2; label: biotin, double-strand end-labeled; blunt. Background: A gel shift assay detects complexes by their altered migration in electrophoresis.

In series [1] the target is T2, phiC31 integrase G182A/F183A (Streptomyces phage phiC31, UniProt Q38194 1-613, G182A;F183A).
T2 sequence: T1 sequence with G182A, F183A, A374C
The series is described as above. The note with it: protein: recombinant; tags: C-terminal His; chain copies: 2; label: biotin, double-strand end-labeled; blunt.

For a further series, the target named is T3, phiC31 integrase WT (Streptomyces phage phiC31, UniProt Q38194 1-613).
T3 sequence: T1 sequence with A374C
The experiment in a line: EMSA; complexes I, II, III; 50 ng/ul Poly (competitor (so in the source)), 0.05% NP-40, 50 mM KCl, 5 mM MgCl2, 10 mM EDTA, 20 ul, 0.4 ng (16 fmol) probe; 30 min at room temperature (Methods) or 30 C; pH not stated; synapsis 2 h at 30 C. The note with it: protein: recombinant; tags: C-terminal His (pET22b); chain copies: 2; label: biotin, double-strand end-labeled; blunt.

Substitutions are numbered along the chain they refer to.

B1: attP 50 bp (dsDNA)
DNA 1: GTAGTGCCCCAACTGGGGTAACCTTTGAGTTCTCTCAGTTGGGGGCGTAG
DNA 2: CTACGCCCCCAACTGAGAGAACTCAAAGGTTACCCCAGTTGGGGCACTAC
Take B1: the binding result is on record as “no binding” with phiC31 integrase C374A, “no binding” in series [1] and “binds” with phiC31 integrase WT.

The values above are taken from paper PMC2810336, “Mutational Analysis of Highly Conserved Residues in the Phage PhiC31 Integrase Reveals Key Amino Acids Necessary for the DNA Recombination”.
